The record followed here is patent publication US11034762 (CENTIVAX, dated 2021).

Where a chain is given by its changes, count along the chain named.

The target in assay [1] is SARS-CoV-2 Receptor Binding Domain (RBD) protein (SARS-CoV-2, UniProt P0DTC2 319-541).
Assay [2] concerns the target T1, MERS Receptor Binding Domain (RBD) protein (MERS virus, UniProt K9N5Q8 367-606).
T1 construct: also called Middle East Respiratory Syndrome (MERS) virus
T1 sequence: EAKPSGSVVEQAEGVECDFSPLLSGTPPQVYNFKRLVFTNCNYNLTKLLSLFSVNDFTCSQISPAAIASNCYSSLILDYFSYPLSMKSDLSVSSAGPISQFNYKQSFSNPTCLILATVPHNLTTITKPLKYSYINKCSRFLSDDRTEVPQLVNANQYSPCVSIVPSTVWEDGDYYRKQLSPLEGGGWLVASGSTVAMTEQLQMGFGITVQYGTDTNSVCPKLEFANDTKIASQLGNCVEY
The assay can be described thus: SPR; clone listed as COV2 only at the 21st table, row 55, column 3.

In assay [3] the target is T2, SARS-CoV-1 Receptor Binding Domain (RBD) protein (SARS-CoV-1, UniProt P59594 306-527).
T2 construct: also called SARS1
Described as above.

Assay [4] has as its target T1, MERS Receptor Binding Domain (RBD) …. The assay can be described thus: SPR; clone listed as COV2 only at the 21st table, row 57, column 3.
Assay [5] deals with T2, SARS-CoV-1 Receptor Binding Domain …. Described as above.
Assay [6] concerns the target T1, MERS Receptor Binding Domain (RBD) …. The assay can be described thus: SPR; clone listed as COV2 only at the 21st table, row 56, column 3.
In assay [7] the target is T2, SARS-CoV-1 Receptor Binding Domain …. The assay is described as above.
Assay [8] deals with T1, MERS Receptor Binding Domain (RBD) …. Description: SPR; clone listed as COV2 only at the 21st table, row 11, column 3.
The target in assay [9] is T2, SARS-CoV-1 Receptor Binding Domain …. The assay is described as above.
Assay [10] concerns the target T1, MERS Receptor Binding Domain (RBD) …. The assay can be described thus: SPR; clone listed as COV2 only at the 21st table, row 53, column 3.
The target in assay [11] is T2, SARS-CoV-1 Receptor Binding Domain …. The assay is described as above.

B1: COVID19_P21_A03 (scFv, V domains shown)
VH: QVQLVQSGAEVKKPGSSVKVSCKASGGTFSNNGLSWVRQAPGQGLEWMGGIIPIFGTANYAQKFQGRVTITADESTSTAYMELSSLRSEDTAVYYCRMGSGISTPMDVWGQGTLVTVSS
VL: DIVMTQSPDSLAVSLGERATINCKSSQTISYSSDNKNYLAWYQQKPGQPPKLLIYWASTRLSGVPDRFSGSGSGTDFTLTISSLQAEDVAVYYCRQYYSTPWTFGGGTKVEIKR
In the case of B1, in assay [1], the Kd amounted to 20.6 nM, the dissociation rate constant (koff) was determined as 0.000858 s⁻¹ and the kon turned out to be 41700 M⁻¹ s⁻¹.

B2: COVID19_P21_B12 (scFv, V domains shown)
VH: QVQLVQSGAEVKKPGSSVKVSCKASGGTFSSYAISWVRQAPGQGLEWMGMINPGGGNTNYAEKFQGRVTITADESTSTAYMELSSLRSEDTAVYYCAGEWGISTPMDVWGQGTLVTVSS
VL: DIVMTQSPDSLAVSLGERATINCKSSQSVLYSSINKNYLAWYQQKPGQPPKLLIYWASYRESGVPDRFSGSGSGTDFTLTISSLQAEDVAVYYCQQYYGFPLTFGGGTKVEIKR
Consider B2, for which, in [1], the Kd is 37.6 nM, the koff is 0.0104 s⁻¹ and the kon was determined as 276000 M⁻¹ s⁻¹.

B3: COVID19_P09_B09 (scFv, V domains shown)
VH: QVQLVQSGAEVKKPGSSVKVSCKASGYRFTDYHLHWVRQAPGQGLEWMGGIVPFSGTTNFAQKFQGRVTITADESTSTAYMELSSLRSEDTAVYYCAGGSGETTPMDVWGQGTLVTVSS
VL: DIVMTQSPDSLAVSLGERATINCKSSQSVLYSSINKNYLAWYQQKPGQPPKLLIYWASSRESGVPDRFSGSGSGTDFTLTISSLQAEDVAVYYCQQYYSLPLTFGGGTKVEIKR
Regarding B3, in assay [1], binding was characterised by a dissociation constant (Kd) of 22.9 nM, the koff worked out at 0.000507 s⁻¹ and the kon was found to be 22100 M⁻¹ s⁻¹. Moreover, in [2], the binding result is given as “no binding (tested: up to 300 nM)”. Further, in assay [3], the binding result was “no binding (tested: up to 300 nM)”.

B4: COVID19_P09_C05 (scFv, V domains shown)
VH: QVQLVQSGAEVKKPGSSVKVSCKASGYSFSDYYIHWVRQAPGQGLEWMGWIDPNSGGTNYAQKFQGRVTITADESTSTAYMELSSLRSEDTAVYYCAGGSGISTPMDVWGQGTLVTVSS
VL: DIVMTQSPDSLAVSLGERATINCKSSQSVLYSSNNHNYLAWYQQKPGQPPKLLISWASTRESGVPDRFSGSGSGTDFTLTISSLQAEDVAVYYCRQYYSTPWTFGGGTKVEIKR
In assay [1], B4 had a dissociation constant Kd of 1.18 nM, a koff of 0.000185 s⁻¹ and a kon of 157000 M⁻¹ s⁻¹. Also, in assay [4], the binding result is on record as “no binding (tested: up to 300 nM)”. Further, the binding result in [5] is on record as “no binding (tested: up to 300 nM)”.

B5: COVID19_P10_B10 (scFv, V domains shown)
VH: B4 VH with Y33H, I34V, M48V, W50M, D52I, N54R, S55H, N59A
VL: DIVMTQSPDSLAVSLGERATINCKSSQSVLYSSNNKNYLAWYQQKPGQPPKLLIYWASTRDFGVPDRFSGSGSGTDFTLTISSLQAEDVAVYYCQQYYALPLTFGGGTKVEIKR
Regarding B5, in [1], the Kd is 46.2 nM, the koff was 0.014 s⁻¹ and the kon came to 302000 M⁻¹ s⁻¹. Besides, the binding result in assay [6] is given as “no binding (tested: up to 300 nM)”. The binding result in assay [7] is reported as “no binding (tested: up to 300 nM)”.

B6: COVID19_P10_B08 (scFv, V domains shown)
VH: B4 VH with Y27G, S28G, S30I, D31T, Y33W, H35G, D52N, N59K, M106I
VL: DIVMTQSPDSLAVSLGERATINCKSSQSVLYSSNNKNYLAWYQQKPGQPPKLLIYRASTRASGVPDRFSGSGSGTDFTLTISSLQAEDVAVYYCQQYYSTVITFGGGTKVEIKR
In [1], B6 returned a dissociation constant Kd of 41.3 nM, a koff of 0.0217 s⁻¹ and a kon of 527000 M⁻¹ s⁻¹.

B7: COVID19_P21_A05 (scFv, V domains shown)
VH: QVQLVQSGAEVKKPGSSVKVSCKASGGGFITYWIGWVRQAPGQGLEWMGIIYPGDGETRYSQKFQGRVTITADESTSTAYMELSSLRSEDTAVYYCAGGSGISTPMDVWGQGTLVTVSS
VL: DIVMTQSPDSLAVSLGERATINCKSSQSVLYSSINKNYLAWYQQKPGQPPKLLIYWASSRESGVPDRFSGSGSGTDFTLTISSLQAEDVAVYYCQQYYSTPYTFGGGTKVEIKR
Turning to B7, in assay [1], the Kd was determined as 41.2 nM, the koff worked out at 0.0173 s⁻¹ and the kon stood at 419000 M⁻¹ s⁻¹.

B8: COVID19_P21_F02 (scFv, V domains shown)
VH: B7 VH with G27Y, G28T, I30T, T31S, W33G, G35S, E57T, A97L, G98P
VL: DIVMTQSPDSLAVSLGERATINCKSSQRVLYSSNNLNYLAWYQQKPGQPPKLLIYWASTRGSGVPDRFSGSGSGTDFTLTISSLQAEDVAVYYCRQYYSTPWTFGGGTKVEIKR
As for B8, in [1], the Kd came to 26.8 nM, the koff stood at 0.000679 s⁻¹ and the kon amounted to 25400 M⁻¹ s⁻¹.

B9: COVID19_P21_A04 (scFv, V domains shown)
VH: B7 VH with G27Y, G56S, I102L, S103L
VL: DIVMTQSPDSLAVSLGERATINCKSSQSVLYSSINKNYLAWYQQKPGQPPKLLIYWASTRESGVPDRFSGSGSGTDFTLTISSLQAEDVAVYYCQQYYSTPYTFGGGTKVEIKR
Consider B9, for which, in assay [1], binding was characterised by a dissociation constant (Kd) of 35 nM, the koff amounted to 0.0143 s⁻¹ and the on-rate (kon) stood at 409000 M⁻¹ s⁻¹.

B10: COVID19_P09_G05 (scFv, V domains shown)
VH: B7 VH with G27Y, G28T, I30T, T31G, Y32H, W33Y, I34M, G35H, G56S, T58A
VL: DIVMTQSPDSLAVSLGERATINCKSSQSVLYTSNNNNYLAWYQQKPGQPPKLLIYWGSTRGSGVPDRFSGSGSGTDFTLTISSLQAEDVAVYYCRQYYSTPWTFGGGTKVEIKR
For the molecule B10, in assay [1], binding was put at a Kd of 11.3 nM, the koff turned out to be 0.000482 s⁻¹ and the kon came out at 42600 M⁻¹ s⁻¹.

B11: COVID19_P21_C09 (scFv, V domains shown)
VH: B7 VH with G27Y, T31S, G56S, S103L, T104E
VL: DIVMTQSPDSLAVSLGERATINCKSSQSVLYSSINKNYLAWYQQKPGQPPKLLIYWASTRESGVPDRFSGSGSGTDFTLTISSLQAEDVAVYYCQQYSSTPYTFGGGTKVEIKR
In assay [1], B11 gave a Kd of 28.5 nM, an off-rate constant (koff) of 0.0157 s⁻¹ and a kon of 551000 M⁻¹ s⁻¹.

B12: COVID19_P21_E08 (scFv, V domains shown)
VH: B7 VH with G27Y
VL: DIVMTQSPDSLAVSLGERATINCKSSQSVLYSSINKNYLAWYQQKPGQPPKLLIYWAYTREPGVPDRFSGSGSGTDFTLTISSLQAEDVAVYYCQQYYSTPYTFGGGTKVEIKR
In [1], B12 yielded a Kd of 32.8 nM, a koff of 0.0142 s⁻¹ and a kon of 434000 M⁻¹ s⁻¹.

B13: COVID19_P09_C08 (scFv, V domains shown)
VH: B7 VH with G27Y, G56S, S61A
VL: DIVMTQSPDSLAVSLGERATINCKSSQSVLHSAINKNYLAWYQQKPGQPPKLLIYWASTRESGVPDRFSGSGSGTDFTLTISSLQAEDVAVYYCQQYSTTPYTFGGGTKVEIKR
Regarding B13, in assay [1], the Kd was 28.7 nM, the koff was found to be 0.0131 s⁻¹ and the kon turned out to be 458000 M⁻¹ s⁻¹.

B14: COVID19_P21_E07 (scFv, V domains shown)
VH: B7 VH with G27Y, G56S
VL: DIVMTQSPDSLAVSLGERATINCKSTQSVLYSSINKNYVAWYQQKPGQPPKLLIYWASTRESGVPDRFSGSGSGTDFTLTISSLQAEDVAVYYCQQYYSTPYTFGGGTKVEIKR
For the molecule B14, in [1], the Kd came out at 41 nM, the off-rate (koff) amounted to 0.0155 s⁻¹ and the on-rate (kon) worked out at 378000 M⁻¹ s⁻¹.

B15: COVID19_P09_G04 (scFv, V domains shown)
VH: B7 VH with G27Y, G56S, R59N, I102L, S103F
VL: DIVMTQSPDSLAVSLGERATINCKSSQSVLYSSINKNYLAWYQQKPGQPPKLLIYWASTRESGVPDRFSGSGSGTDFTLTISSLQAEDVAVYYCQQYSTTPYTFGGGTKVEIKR
In the case of B15, in assay [1], binding was characterised by a dissociation constant (Kd) of 6.18 nM, the koff is 0.00381 s⁻¹ and the kon was 616000 M⁻¹ s⁻¹.

B16: COVID19_P22_E10 (scFv, V domains shown)
VH: B7 VH
VL: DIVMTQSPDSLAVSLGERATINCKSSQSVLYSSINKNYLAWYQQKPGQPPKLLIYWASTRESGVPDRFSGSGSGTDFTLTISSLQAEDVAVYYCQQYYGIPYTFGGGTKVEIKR
Consider B16, for which, in assay [1], the Kd was 25.3 nM, the off-rate constant (koff) turned out to be 0.0058 s⁻¹ and the kon was determined as 230000 M⁻¹ s⁻¹.

B17: COVID19_P22_D06 (scFv, V domains shown)
VH: B7 VH with G56S, I102V, S103L
VL: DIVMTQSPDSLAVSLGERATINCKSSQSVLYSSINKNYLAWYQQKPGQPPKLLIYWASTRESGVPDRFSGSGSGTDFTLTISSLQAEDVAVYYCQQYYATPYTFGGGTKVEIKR
With B17, in [1], the Kd was 30.5 nM, the koff came out at 0.012 s⁻¹ and the kon stood at 410000 M⁻¹ s⁻¹.

B18: COVID19_P21_A10 (scFv, V domains shown)
VH: B7 VH with G27Y, T58A
VL: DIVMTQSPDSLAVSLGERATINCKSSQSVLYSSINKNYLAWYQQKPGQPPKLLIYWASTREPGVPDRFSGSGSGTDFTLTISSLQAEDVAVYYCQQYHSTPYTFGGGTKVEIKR
As for B18, in assay [1], binding was put at a Kd of 46.2 nM, the off-rate constant (koff) came to 0.00729 s⁻¹ and the kon was 158000 M⁻¹ s⁻¹.

B19: COVID19_P21_B11 (scFv, V domains shown)
VH: B7 VH with G27Y, G56S, G99S, S100D
VL: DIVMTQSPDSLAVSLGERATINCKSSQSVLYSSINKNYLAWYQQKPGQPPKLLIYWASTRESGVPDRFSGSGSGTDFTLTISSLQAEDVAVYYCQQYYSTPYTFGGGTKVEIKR
Take B19: in [1], the Kd is 26.3 nM, the koff was 0.0166 s⁻¹ and the kon worked out at 631000 M⁻¹ s⁻¹.

B20: COVID19_P10_B04 (scFv, V domains shown)
VH: B7 VH with G27Y, T31S, G99S, S100D
VL: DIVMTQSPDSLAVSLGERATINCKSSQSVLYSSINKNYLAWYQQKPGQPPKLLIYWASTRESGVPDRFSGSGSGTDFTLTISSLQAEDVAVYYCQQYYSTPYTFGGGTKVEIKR
On to B20, for which, in assay [1], binding was characterised by a dissociation constant (Kd) of 36.2 nM, the koff came out at 0.0223 s⁻¹ and the kon turned out to be 614000 M⁻¹ s⁻¹.

B21: COVID19_P22_F11 (scFv, V domains shown)
VH: B7 VH with G35S, T58A, S103I, T104Q
VL: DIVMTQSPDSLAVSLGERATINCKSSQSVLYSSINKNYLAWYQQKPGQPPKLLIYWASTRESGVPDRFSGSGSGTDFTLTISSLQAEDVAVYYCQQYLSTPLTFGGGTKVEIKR
For B21, in assay [8], the binding result is on record as “no binding (tested: up to 300 nM)”. In assay [9], the binding result is on record as “no binding (tested: up to 300 nM)”. In addition, in assay [1], the affinity, expressed as Kd, was 23.3 nM; the koff came to 0.0093 s⁻¹; the kon is 400000 M⁻¹ s⁻¹.

B22: COVID19_P21_H02 (scFv, V domains shown)
VH: B7 VH with G27Y, G56S, S61A, I102L, S103Y
VL: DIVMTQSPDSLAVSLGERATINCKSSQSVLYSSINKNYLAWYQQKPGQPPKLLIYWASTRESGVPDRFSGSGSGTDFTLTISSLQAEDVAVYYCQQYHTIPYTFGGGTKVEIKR
On to B22, for which, in assay [1], the Kd was determined as 40.3 nM, the dissociation rate constant (koff) was 0.0124 s⁻¹ and the kon amounted to 308000 M⁻¹ s⁻¹.

B23: COVID19_P09_G12 (scFv, V domains shown)
VH: QVQLVQSGAEVKKPGSSVKVSCKASGYPFTNYGISWVRQAPGQGLEWMGWMNPNSGNTGYAQKFQGRVTITADESTSTAYMELSSLRSEDTAVYYCATLSGISTPMDVWGQGTLVTVSS
VL: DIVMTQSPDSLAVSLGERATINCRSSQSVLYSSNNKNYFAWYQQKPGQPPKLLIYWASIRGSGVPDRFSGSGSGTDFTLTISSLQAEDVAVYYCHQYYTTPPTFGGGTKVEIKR
In [1], B23 yielded a dissociation constant Kd of 0.4 nM, a koff of 0.000363 s⁻¹ and a kon of 828000 M⁻¹ s⁻¹. Further, the binding result in assay [10] is given as “no binding (tested: up to 300 nM)”. Moreover, in assay [11], the binding result is “no binding (tested: up to 300 nM)”.
